Measured values: patent US20240018226A1 (PROTHENA BIOSCIENCES, published 2024)

Assays:
[1] = target: T1, 3R2N-tau (Swiss-Prot P10636-5) (human, UniProt P10636 2-758); assay: surface plasmon resonance
T1 construct: The construct used in SPR is not described

[2] = target: T2, 4R2N-tau (Swiss-Prot P10636-8) (human, UniProt P10636 2-758); assay: surface plasmon resonance
T2 construct: The construct used in SPR is not described; also called 441 amino acid tau protein
T2 sequence (P10636 other isoform, or with tags, fused parts or gaps limits assumed): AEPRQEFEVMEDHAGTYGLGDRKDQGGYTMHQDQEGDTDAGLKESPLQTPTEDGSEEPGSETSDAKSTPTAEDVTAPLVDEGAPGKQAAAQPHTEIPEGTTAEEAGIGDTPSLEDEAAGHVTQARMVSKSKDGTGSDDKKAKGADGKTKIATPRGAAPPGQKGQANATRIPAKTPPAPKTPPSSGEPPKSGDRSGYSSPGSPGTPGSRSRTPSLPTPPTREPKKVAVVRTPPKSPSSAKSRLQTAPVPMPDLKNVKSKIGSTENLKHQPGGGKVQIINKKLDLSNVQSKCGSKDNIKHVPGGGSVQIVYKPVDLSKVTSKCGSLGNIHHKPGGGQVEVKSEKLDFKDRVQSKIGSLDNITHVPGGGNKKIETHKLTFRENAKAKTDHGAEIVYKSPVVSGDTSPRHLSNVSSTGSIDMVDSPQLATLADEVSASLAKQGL

T1 sequence (P10636 other isoform, or with tags, fused parts or gaps limits assumed): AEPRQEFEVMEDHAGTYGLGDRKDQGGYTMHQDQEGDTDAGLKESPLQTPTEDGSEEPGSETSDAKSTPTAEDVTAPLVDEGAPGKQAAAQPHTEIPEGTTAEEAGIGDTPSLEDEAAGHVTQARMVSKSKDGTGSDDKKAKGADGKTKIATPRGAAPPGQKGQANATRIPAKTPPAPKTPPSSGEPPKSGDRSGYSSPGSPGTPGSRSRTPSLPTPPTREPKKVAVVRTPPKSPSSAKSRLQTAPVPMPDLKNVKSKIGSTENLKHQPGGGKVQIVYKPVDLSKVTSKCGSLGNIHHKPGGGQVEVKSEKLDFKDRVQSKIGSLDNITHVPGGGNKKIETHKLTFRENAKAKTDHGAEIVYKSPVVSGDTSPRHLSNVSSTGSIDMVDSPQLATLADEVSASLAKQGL

- Kd [1]: 154 pM
- Kd [2]: 206 pM
B1: hu3D6VHv1bA11/L2-DIM4 (antibody, human IgG1, kappa, V domains shown)
VH: EVQLVQSGAEVVKPGATVKISCKASGFNIKDYYLHWVRQRPGQGLEWIGWIDPENGDTVYDPKFQGRATITADTSTDTAYLQLGSLTSEDTAVYFCSTLDFWGQGTLVTVSS
VL: DVVMTQSPLSLPVTLGQPASISCKSSQSLLDSDGKTYLNWLQQRPGQSPRRLIYLVGKRDSGVPDRFSGSGSGTDFTLKISRVEAEDVGVYYCWQGTHFPYTFGGGTKLEIKR
notes: also called PRX005; humanized 3D6 variant
